Test results as given in patent US20210032331A1 (PHANES THERAPEUTICS, published 2021).
Residue numbers refer to the chain shown, from its start. Blank lines part the entries; values can stand above or below the binder they belong to.

Molecular target: T1, human LAG-3(ECD)-mFc (human, UniProt P18627 23-450)
T1 construct: also called hLAG3-mFc; human LAG-3 extracellular domain (ECD) fused to mouse Fc; not shown: mouse Fc
T1 sequence: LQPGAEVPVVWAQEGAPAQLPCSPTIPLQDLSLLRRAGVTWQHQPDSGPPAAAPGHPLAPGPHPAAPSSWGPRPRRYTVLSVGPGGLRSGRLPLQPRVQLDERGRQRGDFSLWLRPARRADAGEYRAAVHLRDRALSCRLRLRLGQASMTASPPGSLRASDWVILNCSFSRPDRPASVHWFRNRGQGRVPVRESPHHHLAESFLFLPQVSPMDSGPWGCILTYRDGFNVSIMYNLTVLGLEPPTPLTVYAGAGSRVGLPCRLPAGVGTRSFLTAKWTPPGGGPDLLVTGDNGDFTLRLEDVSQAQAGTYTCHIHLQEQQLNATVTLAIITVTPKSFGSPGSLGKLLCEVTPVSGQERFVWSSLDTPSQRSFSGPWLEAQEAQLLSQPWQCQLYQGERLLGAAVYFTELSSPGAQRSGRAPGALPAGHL
Test: FACS competition: mAb preincubated with human LAG-3(ECD)-mFc (1 ug/ml); binding to MHC class II on Daudi cells detected with anti-mouse Fc-PE
Procedure: Human Daudi cells were cultured in RPMI+10% FBS. Human LAG-3(ECD)-mFc protein (human LAG-3 ECD fused to mouse Fc) at 1 μg/ml final concentration was incubated with purified mouse, humanized, or chimeric anti-LAG-3 mAbs at various concentrations for 15 minutes at 4° C. The mixture was then added to 100,000 human Daudi cells in a 96-well round bottom plate, mixed and incubated for 15 minutes on ice. Cells were then centrifuged at 1,000 rpm for 5 minutes and washed with FACS buffer (PBS supplemented with 5% BSA) three times. The cells were then incubated with PE-conjugated goat anti-mouse Fc polyclonal antibodies on ice for 15 minutes, washed with FACS buffer three times and then resuspended in FACS buffer containing 0.1 μg/ml PI (propidine iodine) for live/dead cell gating. Cells were then run through the FACS Caliber instrument and the data were analyzed by the Flowjo software. Results of the inhibition of LAG-3 binding to Daudi cells by chimeric mAbs B1C, B3C, B4C, BSC, B9C, and B11C are shown in FIG. 4B.
The mouse anti-hLAG-3 mAbs B5 and B7 were humanized to reduce the potential of immunogenicity when used in human patients. The CDRs in both the heavy and light chains of the mouse mAb were grafted into human framework that have the highest possibility of maintaining the proper structure required for antigen binding. Backmutations from human reside to mouse residue were designed when necessary. The sequences of the humanized VH and VL regions are shown in Table 11 and Table 12, respectively. The humanized VH and VL regions were fused to the constant regions of human IgG4 heavy chain and kappa light chain, respectively, to generate humanized mAbs. Constructs corresponding to the mAb sequences were used for transient transfection in 293E cells. Purified mAbs were analyzed for their ability to inhibit hLAG-3 binding to MHC class II molecules on Daudi cells.

B1: B5(H3L2) (antibody, V domains shown)
VH: QVQLVQSGAVVKKPGASVKMSCKASGYTFTGYYMNWMRQAPGQSLEWLAVINPYNGDTAYNRKFKGRATLTVDKSTSTAYMELSSLRSEDTAVYYCARDDGYHVRFFDVWGQGTTVTVSS
VL: DIQMTQSPSSLSASVGDRVTITCRSSQDISDYLSWLQQKPGGAIKSLIYSTSTLDSGVPSRFSGSRSGTDFTLTISSLQPEDFATYYCLQYASSPPTFGGGTKVEIK
notes: Humanized VH and VL fused to constant regions of human IgG4 heavy chain and kappa light chain; also called humanized B5 with B5/H3 heavy chain and B5/L2 light chain
IC50: 2.85 nM

B3: B5(H4L1) (antibody, V domains shown)
VH: B1 VH with V5R, P41H, A97V
VL: B1 VL with I44P
notes: Humanized VH and VL fused to constant regions of human IgG4 heavy chain and kappa light chain; also called humanized B5 with B5/H4 heavy chain and B5/L1 light chain
IC50: 5.32 nM

B5: B5(H3L3) (antibody, V domains shown)
VH: B1 VH
VL: B1 VL with F71Y
notes: Humanized VH and VL fused to constant regions of human IgG4 heavy chain and kappa light chain; also called humanized B5 with B5/H3 heavy chain and B5/L3 light chain
IC50: 2.91 nM

B6: B5(H3L1) (antibody, V domains shown)
VH: B1 VH
VL: B1 VL with I44P
notes: Humanized VH and VL fused to constant regions of human IgG4 heavy chain and kappa light chain; also called humanized B5 with B5/H3 heavy chain and B5/L1 light chain
IC50: 6.77 nM

B7: B7(H4L5) (antibody, V domains shown)
VH: EVQLVQSGAEVKKPGASVKVSCKASGYTFSDYNLNWVRQAPGQTLEWMGLINLDSAATVYNQKFKGKATMTRDQSTSTAYMELSSLRSEDTAVYYCASYDYWGQGTLVTVSS
VL: DIQMTQSPSSLSASVGDRVTITCRASQDISHYLNWFQQKPGKAPKLLIYETSTLDFGVPSRFSGSGSGTDFTFTISSLQPEDIATYYCLQYATYPLTFGGGTKVEIK
notes: Humanized VH and VL fused to constant regions of human IgG4 heavy chain and kappa light chain; also called humanized B7 with B7/H4 heavy chain and B7/L5 light chain
IC50: 1.35 nM

B10: B7(H2L5) (antibody, V domains shown)
VH: B7 VH with K67R, A68V, Q74T, A79V
VL: B7 VL
notes: Humanized VH and VL fused to constant regions of human IgG4 heavy chain and kappa light chain; also called humanized B7 with B7/H2 heavy chain and B7/L5 light chain
IC50: 1.59 nM

B13: B7(H3L5) (antibody, V domains shown)
VH: B7 VH with T44G, Q74T, A79V
VL: B7 VL
notes: Humanized VH and VL fused to constant regions of human IgG4 heavy chain and kappa light chain; also called humanized B7 with B7/H3 heavy chain and B7/L5 light chain
IC50: 4.18 nM

B15: B7(H1L5) (antibody, V domains shown)
VH: B7 VH with T44G, K67R, A68V, Q74T, A79V
VL: B7 VL
notes: Humanized VH and VL fused to constant regions of human IgG4 heavy chain and kappa light chain; also called humanized B7 with B7/H1 heavy chain and B7/L5 light chain
IC50: 1.59 nM

Continued, values first:

IC50: 0.98 nM
B2: B5(H1L4) (antibody, V domains shown)
VH: B1 VH with V10E, M37V, A49G, A68V, A79V
VL: B1 VL with S46R, S60K, T69S, F71Y
notes: Humanized VH and VL fused to constant regions of human IgG4 heavy chain and kappa light chain; also called B5(HIL4); humanized B5 with B5/H1 heavy chain and B5/L4 light chain

IC50: 1.59 nM
B4: B5(H2L2) (antibody, V domains shown)
VH: B1 VH with V10E, A49G, A68V
VL: B1 VL
notes: Humanized VH and VL fused to constant regions of human IgG4 heavy chain and kappa light chain; also called humanized B5 with B5/H2 heavy chain and B5/L2 light chain

IC50: 0.7 nM
B8: B7(H4L8) (antibody, V domains shown)
VH: B7 VH
VL: B7 VL with L46R
notes: Humanized VH and VL fused to constant regions of human IgG4 heavy chain and kappa light chain; also called humanized B7 with B7/H4 heavy chain and B7/L8 light chain

IC50: 0.78 nM
B9: B7(H6L5) (antibody, V domains shown)
VH: B7 VH with V2F, T28S, R72I
VL: B7 VL
notes: Humanized VH and VL fused to constant regions of human IgG4 heavy chain and kappa light chain; also called humanized B7 with B7/H6 heavy chain and B7/L5 light chain

IC50: 0.72 nM
B11: B7(H5L8) (antibody, V domains shown)
VH: B7 VH with T28S, R72I
VL: B7 VL with L46R
notes: Humanized VH and VL fused to constant regions of human IgG4 heavy chain and kappa light chain; also called humanized B7 with B7/H5 heavy chain and B7/L8 light chain

IC50: 0.74 nM
B12: B7(H2L8) (antibody, V domains shown)
VH: B7 VH with K67R, A68V, Q74T, A79V
VL: B7 VL with L46R
notes: Humanized VH and VL fused to constant regions of human IgG4 heavy chain and kappa light chain; also called humanized B7 with B7/H2 heavy chain and B7/L8 light chain

IC50: 0.9 nM
B14: B7(H1L8) (antibody, V domains shown)
VH: B7 VH with T44G, K67R, A68V, Q74T, A79V
VL: B7 VL with L46R
notes: Humanized VH and VL fused to constant regions of human IgG4 heavy chain and kappa light chain; also called humanized B7 with B7/H1 heavy chain and B7/L8 light chain

IC50: 0.66 nM
B16: B7(H3L8) (antibody, V domains shown)
VH: B7 VH with T44G, Q74T, A79V
VL: B7 VL with L46R
notes: Humanized VH and VL fused to constant regions of human IgG4 heavy chain and kappa light chain; also called humanized B7 with B7/H3 heavy chain and B7/L8 light chain

IC50: 0.28 nM
B17: B7(H5L5) (antibody, V domains shown)
VH: B7 VH with T28S, R72I
VL: B7 VL
notes: Humanized VH and VL fused to constant regions of human IgG4 heavy chain and kappa light chain; also called humanized B7 with B7/H5 heavy chain and B7/L5 light chain
